# Laboratory results reported in patent US20230250181A1 (published 2023).
# B1: Composition K (antibody)
# VH: QVQLVQSGAEVKKPGASVKVSCKASGYTFTSYYMYWVRQAPGQGLEWMGGVNPSNGGTNFNEKFKSRVTITADKSTSTAYMELSSLRSEDTAVYYCARRDYRYDMGFDYWGQGTTVTVSS
# VL: EIVLTQSPATLSLSPGERATISCRASKGVSTSGYSYLHWYQQKPGQAPRLLIYLASYLESGVPARFSGSGSGTDFTLTISSLEPEDFATYYCQHSRELPLTFGTGTKVEIK
# chain: APTSSSTKKTQLQLEHLLLDLQXILNGINNYKNPKLTRXLXYKFYXPKKATELKHLQCLEEELKPLEEVLXLAQSKNFHLRPRDLISNINVIVLELKGSETTFXCEYADETATIVEFLNRWITFSQSIISTLT
# modifications: not fully specified; Composition AB: Nle at 23, 39, 46; Hse at 41, 71, 104; ~0.5 kDa PEG on Y45; 0.5 kDa PEG capped with azide on F42Y, reacted with DBCO on K288 (EU numbering) of the antibody's Fc region
# notes: Immunocytokine; linker at K288 of the Fc region
# B2: Composition H (antibody)
# VH: B1 VH
# VL: B1 VL
# chain: B1 chain
# modifications: not fully specified; Composition AB: Nle at 23, 39, 46; Hse at 41, 71, 104; ~0.5 kDa PEG on Y45; 0.5 kDa PEG capped with azide on F42Y, reacted with DBCO on K248 (EU numbering) of the antibody's Fc region
# notes: Immunocytokine; linker at K248 of the Fc region, DAR 1; also called LZM-009 conjugated to Composition AB, DAR 1, K248
# B3: Composition J (antibody)
# VH: B1 VH
# VL: B1 VL
# chain: B1 chain
# modifications: not fully specified; Composition AB: Nle at 23, 39, 46; Hse at 41, 71, 104; ~0.5 kDa PEG on Y45; 0.5 kDa PEG capped with azide on F42Y, reacted with DBCO on K288 (EU numbering) of the antibody's Fc region
# notes: Immunocytokine; linker at K288 of the Fc region, DAR 1; also called LZM-009 conjugated to Composition AB, DAR 1, K288
# B4: LZM-009 (antibody, V domains shown)
# VH: B1 VH
# VL: B1 VL
# B5: Pembrolizumab (antibody, human IgG4 S228P, kappa)
# heavy: not shown
# light: EIVLTQSPATLSLSPGERATLSCRASKGVSTSGYSYLHWYQQKPGQAPRLLIYLASYLESGVPARFSGSGSGTDFTLTISSLEPEDFAVYYCQHSRDLPLTFGGGTKVEIKRTVAAPSVFIFPPSDEQLKSGTASVVCLLNNFYPREAKVQWKVDNALQSGNSQESVTEQDSKDSTYSLSSTLTLSKADYEKHKVYACEVTHQGLSSPVTKSFNRGEC
# notes: also called Lambrolizumab
# Columns and labels:
# [1] = target: T1, recombinant biotinylated PD1/CD279 protein from Biolegend (789406) (UniProt Q15116 25-167, limits assumed, biotinylated); assay: ELISA; antibody coated on plate, biotinylated PD-1 titrated, streptavidin-HRP
# T1 construct: also called PD1/CD279 ligand
# T1 sequence (Q15116 25-167 limits assumed): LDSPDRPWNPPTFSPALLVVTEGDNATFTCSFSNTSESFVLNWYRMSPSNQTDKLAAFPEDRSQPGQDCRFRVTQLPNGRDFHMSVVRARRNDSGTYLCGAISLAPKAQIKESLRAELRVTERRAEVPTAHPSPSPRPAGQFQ
# Protocol: The interaction of the unmodified and of conjugated anti-PD1 antibodies with PD-1 (CD279) were measured by ELISA assay. For these studies, Corning high-binding half-area plates (Fisher Scientific, Reinach, Switzerland) were coated overnight at 4° C. with 25 μl of unmodified or conjugated anti-PD1 antibodies at 2.5 μg/ml in PBS. Plates were then washed four times with 100 μl of PBS-0.02% Tween20. Plate surfaces were blocked with 25 μl of PBS-0.02% Tween20-1% BSA at 37° C. during 1 h. Plates were then washed four times with 100 μl of PBS-0.02% Tween20. […] Plates were then washed four times with 100 μl of PBS-0.02% Tween20. Twenty-five microliters of Streptavidin-Horseradish peroxidase (#RABHRP3, Merck, Buchs, Switzerland) diluted at 1:500 in PBS-0.02% Tween20-0.1% BSA were added to each well and incubated at Room Temperature during 30 min. Plates were then washed four times with 100 μl of PBS-0.02% Tween20. Fifty microliters of TMB substrate reagent (#CL07, Merck, Buchs, Switzerland) were added to each well and incubated at 37° C. during 5 min. After 5 min at 37° C., Horseradish peroxidase reaction was stopped by adding 50 μl/well of 0.5M H₂SO₄ stop solution. ELISA signal was then measured at 450 nm on an EnSpire plate reader from Perkin Elmer (Schwerzenbach, Switzerland).
# [2] = target: T2, recombinant Human Fc gamma RI/CD64 Protein (R&D systems, 1257-FC-050, CF) (human, UniProt P12314 16-288); assay: ELISA; antibody coated on plate, recombinant receptor titrated
# T2 construct: Bought protein; also called FcγRI; FcgRI
# T2 sequence (P12314 16-288 limits assumed): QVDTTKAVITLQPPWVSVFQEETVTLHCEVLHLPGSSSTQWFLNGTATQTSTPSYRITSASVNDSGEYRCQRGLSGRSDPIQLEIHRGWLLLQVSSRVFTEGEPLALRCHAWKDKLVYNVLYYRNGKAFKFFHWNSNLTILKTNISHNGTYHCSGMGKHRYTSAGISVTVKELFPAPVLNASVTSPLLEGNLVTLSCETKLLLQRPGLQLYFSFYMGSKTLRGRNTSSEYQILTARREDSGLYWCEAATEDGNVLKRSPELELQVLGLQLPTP
# Protocol: (§1) The interaction of the unmodified and of conjugated anti-PD1 antibodies with human Fc gamma receptors I (FcγRI/CD64), with human Fc gamma receptors Ha (FcγRIIa/CD32a), with inhibitory human Fc gamma receptors IIb (FcγRIIb/CD32b), and with human Fc gamma receptors III FcγR3a/CD16 were measured by ELISA. Briefly, Corning high-binding half-area plates (Fisher Scientific, Reinach, Switzerland) were coated overnight at 4° C. with 25 μl of unmodified and of conjugated anti-PD1 antibodies at 2.5 μg/ml in PBS. Plates were then washed four times with 100 μl of PBS-0.02% Tween20. Plates surfaces were blocked with 25 μl of PBS-0.02% Tween20-1% BSA at 37° C. during 1 h. Plates were then washed four times with 100 μl of PBS-0.02% Tween20. Then twenty-five microliters of either recombinant Human Fc gamma RI/CD64 Protein (R&D systems, 1257-FC-050, CF), recombinant Human Fc gamma RIIA/CD32a (H167) Protein (R&D systems, 9595-CD-050, CF), recombinant Human Fc gamma RIIB/CD32b Avi-tag Protein (R&D systems, AVI1875-050, CF), or recombinant Human Fc gamma RIIIA/CD16a Protein (R&D systems, 4325-FC-050; CF) were added in five-fold serial dilutions ranging from 1000 nM to 0.001 nM into PBS-0.02% Tween20-0.1% BSA and incubated at 37° C. during 2 h. […] ELISA signal was then measured at 450 nm on an EnSpire plate reader from Perkin Elmer (Schwerzenbach, Switzerland). […]
# [3] = target: T3, recombinant Human Fc gamma RIIIA/CD16a Protein (R&D systems, 4325-FC-050; CF) (human, UniProt P08637 17-208, limits assumed); assay: as above
# T3 construct: Bought protein; also called FcγRIIIa; FcgRIIIa
# T3 sequence (P08637 17-208 limits assumed): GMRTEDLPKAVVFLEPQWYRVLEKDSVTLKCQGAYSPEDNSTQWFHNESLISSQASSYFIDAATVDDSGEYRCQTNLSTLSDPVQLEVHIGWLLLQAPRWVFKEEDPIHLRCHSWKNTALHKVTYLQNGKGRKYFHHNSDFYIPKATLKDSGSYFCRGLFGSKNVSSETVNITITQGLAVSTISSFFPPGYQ
# Protocol: as §1
# [4] = target: T4, recombinant biotinylated human FcRn (human, UniProt P55899 24-297, limits assumed, biotinylated); assay: AlphaLISA competition at pH 6; test molecule competes with human IgG acceptor beads for biotinylated human FcRn
# T4 construct: also called human neonatal Fc receptor
# T4 sequence (P55899 24-297 limits assumed, form in doubt): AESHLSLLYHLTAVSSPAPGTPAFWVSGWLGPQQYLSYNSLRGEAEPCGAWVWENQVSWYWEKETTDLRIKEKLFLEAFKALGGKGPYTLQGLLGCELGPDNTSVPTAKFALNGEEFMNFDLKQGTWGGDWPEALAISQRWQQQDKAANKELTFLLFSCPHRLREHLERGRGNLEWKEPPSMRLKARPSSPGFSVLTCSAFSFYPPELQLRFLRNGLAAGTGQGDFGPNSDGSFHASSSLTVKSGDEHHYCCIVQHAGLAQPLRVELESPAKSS
# Protocol: The interaction of the unmodified and of conjugated anti-PD1 antibodies with the human neonatal Fc receptor (FcRn) at pH 6 was measured using the AlphaLISA® Human FcRn Binding Kit (AL3095C) from Perkin Elmer (Schwerzenbach, Switzerland).
# After 90 min at 23° C. in the dark, AlphaLISA® signal was measured on an EnSpire plate reader (Excitation at 680 nm, Emission at 615 nm) from Perkin Elmer (Schwerzenbach, Switzerland).
Binder,Kd [1] [µM],Kd [2] [µM],Kd [3] [µM],Kd [4] [µM]
B1,41,,,
B2,37,,,
B3,27,,,
B4,35,,,
B5,,0.000488,0.289,0.00731
